Source: patent US12679884 (University of Washington, dated 2026)
One block for each molecule: values may come before it.

What was measured:
[1] = molecular target: GAL4-RpBphP1; experiment: cell-based or functional assay
[2] = molecular target: the molecule itself; experiment: analytical SEC of DrBphP alone, Superdex 200 Increase 10/300 GL
[3] = molecular target: the molecule itself; experiment: analytical SEC of LDB-3 alone at different injected amounts, Superdex 200 Increase 10/300 GL
[4] = molecular target: the molecule itself; experiment: analytical SEC of LDB-14 alone at different injected amounts, Superdex 200 Increase 10/300 GL

light-induced luciferase expression over dark expression (mammalian two-hybrid, HEK293T, 775-nm light) [1]: 2.95 fold
Molecule: NLS-PpsR2-p65

B1: DrBphP-His, light form (photosensory module of Deinococcus radiodurans bacteriophytochrome, biliverdin-bound, after 654-nm illumination) (other)
chain: MSRDPLPFFPPLYLGGPEITTENCEREPIHIPGSIQPHGALLTADGHSGEVLQMSLNAATFLGQEPTVLRGQTLAALLPEQWPALQAALPPGCPDALQYRATLDWPAAGHLSLTVHRVGELLILEFEPTEAWDSTGPHALRNAMFALESAPNLRALAEVATQTVRELTGFDRVMLYKFAPDATGEVIAEARREGLHAFLGHRFPASDIPAQARALYTRHLLRLTADTRAAAVPLDPVLNPQTNAPTPLGGAVLRATSPMHMQYLRNMGVGSSLSVSVVVGGQLWGLIACHHQTPYVLPPDLRTTLEYLGRLLSLQVQVKEAADVAAFRQSLREHHARVALAAAHSLSPHDTLSDPALDLLGLMRAGGLILRFEGRWQTLGEVPPAPAVDALLAWLETQPGALVQTDALGQLWPAGADLAPSAAGLLAISVGEGWSECLVWLRPELRLEVAWGGATPDQAKDDLGPRHSFDTYLEEKRGYAEPWHPGEIEEAQDLRDTLTGAL
modifications: biliverdin chromophore bound
notes: Same polypeptide as m2; differs only in the photoconverted state (654-nm light); Used in SEC, ITC, BLI and photoconversion assays; also called DrBphP light form
binding result [2]: binds

B2: DrBphP-His, dark form (photosensory module of Deinococcus radiodurans bacteriophytochrome, biliverdin-bound, after 775-nm illumination) (other)
chain: B1 chain
modifications: biliverdin chromophore bound
notes: Same polypeptide as m1; differs only in the photoconverted state (775-nm light); also called DrBphP dark form
binding result [2]: binds

B3: LDB-3-His (VHH, not shown: small tags and cut ends)
VHH: EVQLQASGGGFVQPGGSLRLSCAASGFTWDHYIMGWFRQAPGKEREFVSAISENGDAWNYYADSVKGRFTISRDNSKNTVYLQMNSLRAEDTATYYCAIGFDVPSGRSWQGSHFWMYWGQGTQVTVSS
notes: Synthetic nanobody, expressed in E. coli WK6; used in SEC, ITC and photoconversion assays; SEC: mixture of monomer and dimer
binding result [3]: binds

B4: LDB-14-His (VHH, not shown: small tags and cut ends)
VHH: EVQLQASGGGFVQPGGSLRLSCAASGTTSRWESMGWFRQAPGKEREFVSAISWQNNSVPYYADSVKGRFTISRDNSKNTVYLQMNSLRAEDTATYYCAAQHNFLGHRYWGQGTQVTVSS
notes: Synthetic nanobody, expressed in E. coli WK6; used in SEC, ITC and photoconversion assays; SEC: mainly monomer
binding result [4]: binds
